Data from the RNAGym collection of RNA variant scans (doi:10.7554/elife.80360).

B1: HDV Ribozyme (parent)
chain: GGCCGGCAUGGUCCCAGCCUCCUCGCUGGCGCCGGCUGGGCAACAUUCCGAGGGGACCGUCCCCUCGGUAAUGGCGAAUGGGACCCA

Variants of: B1
Test: self-cleavage, relative activity (ratio to wild type); higher = more cleavage; co-transcriptional

Variant	self-cleavage
U20A U60C	0
U20A U60G	0.128
U20G G28A	0.0536
U20G G28C	0
U20G G28U	0.0831
U20C G81A	0
U20C G81C	0
U20G C62G	0.0755
C19U G76C	0.277
C19U G76U	0.288
U20C C49U	0.192
U20C C49G	0.0852
U20C G38A	0
U20G C63U	0.297
U20G C63A	0.214
U20G A45U	0.138
U20G A45G	0.0755
U20C	0.129
U20G	0.205
U20A	0.0723
U20C G55U	0.199
U20G C86G	0.287
U20G C86A	0.237
U20C U60C	0.0978

Variant	self-cleavage
U20C U60A	0.115
U20A G31U	0.0978
U20C C75U	0
U20C C75G	0
U20A A83U	0.0978
U20A A83C	0
U20C C61G	0.128
U20C C61A	0.166
U20C U47C	0.262
U20C G59U	0.128
U20C G59C	0.0898
U20G C33A	0.119
U20C C57U	0.306
U20C C57A	0.0449
U20A G54C	0.196
U20A G54U	0.0923
U20G G59A	0.268
U20C A71U	0.0898
U20C A71G	0.0978
U20C C48G	0.0594
U20C C48U	0.0791
U20C U27C	0
U20C U27A	0.196
U20A G53C	0.0773

Variant	self-cleavage
U20A G53A	0.122
C19U U65C	0.154
C19U U65A	0.0791
C19U U65G	0.182
U20A U27G	0
U20C C62U	0.0875
U20A G76U	0
U20A G76A	0.135
U20A C85A	0.26
U20G A43C	0.256
U20G A43U	0.107
U20A A77G	0.0723
U20A A77C	0.151
U20C C58U	0
U20A U69C	0
U20A U69G	0.0519
C19U G81A	0
C19U G81C	0.101
U20G C36U	0.155
U20G C36G	0.151
U20G G39C	0.175
U20G G39A	0.0396
U20G G39U	0.0369
U20C G80C	0.106

Variant	self-cleavage
C19U G82U	0.0702
U20C C66G	0.131
U20C G29C	0.231
U20G C48G	0.222
U20G C48A	0.0723
U20G C48U	0.237
U20A U72G	0
U20A U72A	0.107
U20A C86G	0.166
U20A C86U	0.119
U20A C86A	0.0723
U20G G55C	0.0978
U20G G55A	0.356
U20C C33U	0.0536
U20C C33A	0.0665
U20A G81A	0
U20A G81U	0.0346
U20C C44G	0.0692
U20C C44U	0
U20A C48A	0.0573
C19U U69G	0.0692
C19U U69A	0.212
U20A G82C	0
U20A G82U	0.0875

Variant	self-cleavage
C19U U72C	0.0354
U20A G80C	0.0992
U20A G80U	0.0141
U20A G25U	0.119
U20A G25C	0.151
U20A G25A	0.0852
U20C U23G	0
U20C U23C	0.0723
U20G A42G	0.138
U20G C61G	0.0536
U20G G67A	0.156
U20G G67U	0.467
U20G C57U	0.302
U20G C57A	0.111
U20G C57G	0.208
C19U U20G	0.0594
U20A C32A	0.0489
U20A C41U	0
U20A C41A	0.0396
U20A C84G	0.196
U20A C84U	0.0449
U20C C86G	0.208
U20G C66U	0.148
U20C G25C	0.227

Variant	self-cleavage
U20C G25U	0.0415
U20G C41U	0.287
U20G C41G	0.166
U20A A43G	0.0573
U20C A78G	0.0755
U20C A78C	0.0449
C19U G74C	0.126
C19U G74A	0.0961
U20A C75U	0.0489
C19U G67A	0.0739
U20C C85U	0.0475
U20C C85A	0.119
U20C A70C	0.246
U20A G39U	0.0852
U20G A78C	0.249
C19U G52C	0.326
U20G G35C	0
U20C A45G	0
U20C A45C	0
U20C U69A	0
U20C U69C	0.208
C19U G50C	0.332
C19U G50A	0.245
U20C G40C	0.0396

Variant	self-cleavage
U20C G40A	0.0941
U20C A51C	0.287
U20G G54C	0.571
C19U G53C	0.0875
C19U G53A	0.229
U20C A42G	0
U20C G50U	0.163
U20C G50C	0.312
U20A U37A	0.0831
U20A U37G	0.277
U20G G31U	0.102
U20C C36A	0
U20A U65A	0.0504
U20C U46C	0
U20C U46A	0.317
U20A G34U	0
U20A C64U	0.138
U20C G31A	0.0415
U20A G50U	0
U20A C26A	0.0594
U20A C26U	0.158
U20C U65G	0.145
U20C U65C	0.401
